Measured values reported in PMC3885427.

Target: SOX6, full-length, yeast two-hybrid fusion (UniProt P35712)
Assay: yeast two-hybrid (β-galactosidase liquid assay)
Conditions: S. cerevisiae Y187; SOX6 in pGBT9 (BD), SHOX2 mutant in pACT2 (AD); CRPG as substrate; parent: est. 100; read off a plot

Sequence of SOX6, full-length, yeast two-hybrid fusion (P35712 whole entry, the tested form may be a part): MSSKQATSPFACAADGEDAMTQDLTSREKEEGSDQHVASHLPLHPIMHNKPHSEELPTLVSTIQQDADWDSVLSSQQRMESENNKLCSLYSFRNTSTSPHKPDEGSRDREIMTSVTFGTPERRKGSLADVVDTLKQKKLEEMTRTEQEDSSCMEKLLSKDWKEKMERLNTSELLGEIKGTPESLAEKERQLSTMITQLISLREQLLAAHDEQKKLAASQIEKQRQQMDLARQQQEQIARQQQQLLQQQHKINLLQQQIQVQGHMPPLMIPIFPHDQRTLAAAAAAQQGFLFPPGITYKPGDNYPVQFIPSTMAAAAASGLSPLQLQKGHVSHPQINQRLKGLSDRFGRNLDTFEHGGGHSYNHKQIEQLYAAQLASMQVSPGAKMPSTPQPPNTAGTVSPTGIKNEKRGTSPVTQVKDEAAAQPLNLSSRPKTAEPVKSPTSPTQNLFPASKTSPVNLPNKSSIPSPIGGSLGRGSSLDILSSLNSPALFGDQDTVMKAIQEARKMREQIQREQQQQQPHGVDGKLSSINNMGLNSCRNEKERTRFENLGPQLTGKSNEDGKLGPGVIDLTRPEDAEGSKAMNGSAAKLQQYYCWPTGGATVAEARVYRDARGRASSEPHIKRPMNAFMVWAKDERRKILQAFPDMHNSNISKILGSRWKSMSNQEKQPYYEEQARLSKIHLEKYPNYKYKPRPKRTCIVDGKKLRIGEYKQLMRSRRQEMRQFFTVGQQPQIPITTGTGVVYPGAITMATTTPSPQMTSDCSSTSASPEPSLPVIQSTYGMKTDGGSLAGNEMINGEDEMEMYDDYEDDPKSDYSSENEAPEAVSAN
Sequence of SHOX2a (called SHOX2 in the paper), full-length, yeast two-hybrid fusion, O60902-1 R196C (O60902 whole entry R196C, the tested form may be a part): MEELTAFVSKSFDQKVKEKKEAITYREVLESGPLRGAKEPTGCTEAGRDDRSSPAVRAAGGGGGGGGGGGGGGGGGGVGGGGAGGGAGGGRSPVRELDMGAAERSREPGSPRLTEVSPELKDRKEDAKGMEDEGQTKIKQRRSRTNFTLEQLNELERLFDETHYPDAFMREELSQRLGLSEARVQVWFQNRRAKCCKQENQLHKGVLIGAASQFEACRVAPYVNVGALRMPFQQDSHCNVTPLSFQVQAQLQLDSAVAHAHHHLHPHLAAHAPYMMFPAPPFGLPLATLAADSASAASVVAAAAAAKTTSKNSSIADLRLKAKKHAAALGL
Sequence of SHOX2a (called SHOX2 in the paper), full-length, yeast two-hybrid fusion, O60902-1 R218Q (O60902 whole entry R218Q, the tested form may be a part): as the sequence (O60902 whole entry R196C, the tested form may be a part) above, with C196R, R218Q counted along it
Sequence of SHOX2a (called SHOX2 in the paper), full-length, yeast two-hybrid fusion, O60902-1 A269D (O60902 whole entry A269D, the tested form may be a part): as the sequence (O60902 whole entry R196C, the tested form may be a part) above, with C196R, A269D counted along it
Sequence of SHOX2a (called SHOX2 in the paper), full-length, yeast two-hybrid fusion, O60902-1 L155V (O60902 whole entry L155V, the tested form may be a part): as the sequence (O60902 whole entry R196C, the tested form may be a part) above, with L155V, C196R counted along it
Sequence of SHOX2a (called SHOX2 in the paper), full-length, yeast two-hybrid fusion, O60902-1 K139E (O60902 whole entry K139E, the tested form may be a part): as the sequence (O60902 whole entry R196C, the tested form may be a part) above, with K139E, C196R counted along it
Sequence of SHOX2a (called SHOX2 in the paper), full-length, yeast two-hybrid fusion, O60902-1 A193P (O60902 whole entry A193P, the tested form may be a part): as the sequence (O60902 whole entry R196C, the tested form may be a part) above, with A193P, C196R counted along it
Sequence of SHOX2a (called SHOX2 in the paper), full-length, yeast two-hybrid fusion, O60902-1 R319P (O60902 whole entry R319P, the tested form may be a part): as the sequence (O60902 whole entry R196C, the tested form may be a part) above, with C196R, R319P counted along it

Which percent of parent (% Interaction with SOX6) does the source give for “SHOX2a (called SHOX2 in the paper), full-length, yeast two-hybrid fusion, O60902-1 A193P” here?
The percent of parent (% Interaction with SOX6) was 8.

Which percent of parent (% Interaction with SOX6) does the source give for “SHOX2a (called SHOX2 in the paper), full-length, yeast two-hybrid fusion, O60902-1 A269D” here?
The percent of parent (% Interaction with SOX6) was 87.

Which percent of parent (% Interaction with SOX6) does the source give for “SHOX2a (called SHOX2 in the paper), full-length, yeast two-hybrid fusion, O60902-1 K139E” here?
Its percent of parent (% Interaction with SOX6) is 44.

“SHOX2a (called SHOX2 in the paper), full-length, yeast two-hybrid fusion, O60902-1 L155V” was tested. Which percent of parent (% Interaction with SOX6) did it give?
Its percent of parent (% Interaction with SOX6) is 10.

With “SHOX2a (called SHOX2 in the paper), full-length, yeast two-hybrid fusion, O60902-1 R196C” as the substance, how does the percent of parent (% Interaction with SOX6) read?
The percent of parent (% Interaction with SOX6) was 29.

For “SHOX2a (called SHOX2 in the paper), full-length, yeast two-hybrid fusion, O60902-1 R218Q”, which percent of parent (% Interaction with SOX6) is on record?
The percent of parent (% Interaction with SOX6) was 89.

“SHOX2a (called SHOX2 in the paper), full-length, yeast two-hybrid fusion, O60902-1 R319P” was tested. Which percent of parent (% Interaction with SOX6) did it give?
The percent of parent (% Interaction with SOX6) was 80.
